In patent US20250092148A1 (Kyowa Kirin, published 2025):
Changes are numbered by the printed parent chain.

T1: human CD116 K158A (human, UniProt P15509 23-400)
T1 construct: whole, on cells
T1 sequence (looked up): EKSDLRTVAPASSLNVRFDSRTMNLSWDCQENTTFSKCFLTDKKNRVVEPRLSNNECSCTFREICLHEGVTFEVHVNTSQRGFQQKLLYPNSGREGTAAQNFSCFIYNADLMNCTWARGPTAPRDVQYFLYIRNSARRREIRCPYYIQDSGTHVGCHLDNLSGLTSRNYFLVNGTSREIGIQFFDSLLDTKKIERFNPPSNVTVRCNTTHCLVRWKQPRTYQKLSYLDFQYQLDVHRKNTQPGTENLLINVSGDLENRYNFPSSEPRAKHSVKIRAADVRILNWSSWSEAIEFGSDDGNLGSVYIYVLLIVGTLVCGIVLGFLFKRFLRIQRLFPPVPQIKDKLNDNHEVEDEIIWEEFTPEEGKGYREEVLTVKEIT

T2: human CD116 L249A (human, UniProt P15509 23-400)
T2 construct: whole, on cells
T2 sequence (looked up): T1 sequence (looked up) with A136K, L227A

T3: human CD116 T187A (human, UniProt P15509 23-400)
T3 construct: whole, on cells
T3 sequence (looked up): T1 sequence (looked up) with A136K, T165A

T4: human CD116 Y248A (human, UniProt P15509 23-400)
T4 construct: whole, on cells
T4 sequence (looked up): T1 sequence (looked up) with A136K, Y226A

T5: human CD131 R221A (human, UniProt P32927 17-897)
T5 construct: whole, on cells; also called R221 Ala substitution
T5 sequence (looked up): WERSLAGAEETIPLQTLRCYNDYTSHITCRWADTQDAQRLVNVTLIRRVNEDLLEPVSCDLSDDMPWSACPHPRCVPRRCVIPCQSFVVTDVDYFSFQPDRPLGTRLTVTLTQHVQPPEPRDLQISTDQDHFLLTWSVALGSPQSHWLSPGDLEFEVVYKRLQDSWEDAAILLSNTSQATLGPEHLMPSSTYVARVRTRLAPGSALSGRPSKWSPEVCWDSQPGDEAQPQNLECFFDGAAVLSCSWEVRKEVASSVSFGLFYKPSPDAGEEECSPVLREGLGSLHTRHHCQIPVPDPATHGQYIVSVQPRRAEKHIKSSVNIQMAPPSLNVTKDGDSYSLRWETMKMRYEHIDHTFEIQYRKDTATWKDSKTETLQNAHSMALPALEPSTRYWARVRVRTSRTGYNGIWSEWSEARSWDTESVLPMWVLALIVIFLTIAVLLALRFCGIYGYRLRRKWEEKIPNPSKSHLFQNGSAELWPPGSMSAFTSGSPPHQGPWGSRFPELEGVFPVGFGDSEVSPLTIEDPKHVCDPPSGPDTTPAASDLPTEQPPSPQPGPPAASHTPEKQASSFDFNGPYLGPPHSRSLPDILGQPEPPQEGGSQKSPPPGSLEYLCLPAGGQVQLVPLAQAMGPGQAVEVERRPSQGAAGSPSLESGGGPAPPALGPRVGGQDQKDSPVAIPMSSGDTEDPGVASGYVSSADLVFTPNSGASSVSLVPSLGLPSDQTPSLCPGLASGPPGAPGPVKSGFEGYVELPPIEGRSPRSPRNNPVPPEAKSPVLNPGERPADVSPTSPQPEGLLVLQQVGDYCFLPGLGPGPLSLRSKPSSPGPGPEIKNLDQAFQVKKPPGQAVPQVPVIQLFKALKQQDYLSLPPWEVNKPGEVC

B1: anti-CD116 antibody 116-408, Fab (Fab, V domains shown)
VH: EVQLVQSGAEVKKPGASVKVSCKVSGYTLTDLSMHWVRQAPGKGLEWMGGFDPEDGERIYAQKFQGRVTMTEDTSTDTAYMELSSLRSEDTAVYYCATGLFYYYYGMDVWGQGTMVTVSS
VL: not shown
B2: anti-CD131 antibody 131-B2, Fab (Fab, V domains shown)
VH: QVQLVQSGAEVKEPGASVKISCKASGYTFTNDYMHWVRQAPGQGLEWMGIINPTGGGTSYAQKFRGRVTMTRDTSTSTVYMELSSLRSEDTAVFYCARERYYGSGTYFNIGLWYFDLWGRGTLVTVSS
VL: not shown
notes: Fab made from the antibody by an enzyme treatment

Assays:
[1] = biological target: T1, human CD116 K158A; test: flow cytometry, Fab 0.25 µg/mL on HEK-293T cells expressing the mutant
[2] = biological target: T2, human CD116 L249A; test: as above
[3] = biological target: T3, human CD116 T187A; test: as above
[4] = biological target: T4, human CD116 Y248A; test: as above
[5] = biological target: T5, human CD131 R221A; test: flow cytometry, Fab on HEK-293T cells expressing the mutant; labels of this column stand one row too low, mutant assigned after shifting them up (text: R221 is an epitope residue)

Row | Binder | Binding Reactivity (% WT) [1] [% WT] | Binding Reactivity (% WT) [2] [% WT] | Binding Reactivity (% WT) [3] [% WT] | Binding Reactivity (% WT) [4] [% WT] | Binding Reactivity (% WT) [5] [% WT]
1 | B1 | 35.2 | 92.4 | 16.2 | 78.2 | 
2 | B2 |  |  |  |  | 38
